Experimental data reported in article PMC4295836 (Arteriosclerosis, thrombosis, and vascular biology, 2013).

Target: T1, G-protein–coupled receptor kinase–interacting protein-1 (human (endogenous in HUVEC), UniProt Q9Y2X7 1-761)
T1 sequence (looked up): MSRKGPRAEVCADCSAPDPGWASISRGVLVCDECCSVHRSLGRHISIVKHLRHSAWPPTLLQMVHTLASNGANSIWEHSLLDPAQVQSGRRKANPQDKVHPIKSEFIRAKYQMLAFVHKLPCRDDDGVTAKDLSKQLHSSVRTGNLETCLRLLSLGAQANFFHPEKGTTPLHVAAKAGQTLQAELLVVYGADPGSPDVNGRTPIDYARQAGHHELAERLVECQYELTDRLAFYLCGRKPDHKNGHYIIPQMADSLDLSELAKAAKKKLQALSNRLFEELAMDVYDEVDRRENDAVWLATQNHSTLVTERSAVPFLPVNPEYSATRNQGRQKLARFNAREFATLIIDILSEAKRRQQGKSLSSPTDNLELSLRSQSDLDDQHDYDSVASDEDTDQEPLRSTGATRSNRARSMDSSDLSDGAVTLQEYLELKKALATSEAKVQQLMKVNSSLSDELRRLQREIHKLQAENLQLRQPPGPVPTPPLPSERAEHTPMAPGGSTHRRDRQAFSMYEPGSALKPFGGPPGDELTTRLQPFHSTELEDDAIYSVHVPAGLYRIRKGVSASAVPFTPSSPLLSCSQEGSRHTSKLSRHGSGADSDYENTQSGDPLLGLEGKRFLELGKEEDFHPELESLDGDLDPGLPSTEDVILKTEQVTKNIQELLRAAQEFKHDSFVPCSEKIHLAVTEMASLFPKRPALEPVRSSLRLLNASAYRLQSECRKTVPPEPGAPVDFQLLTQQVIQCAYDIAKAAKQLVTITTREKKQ
Assay: co-IP

B1: cortactin (natural protein, human (endogenous in HUVEC), UniProt Q14247 1-550, looked up)
chain: MWKASAGHAVSIAQDDAGADDWETDPDFVNDVSEKEQRWGAKTVQGSGHQEHINIHKLRENVFQEHQTLKEKELETGPKASHGYGGKFGVEQDRMDKSAVGHEYQSKLSKHCSQVDSVRGFGGKFGVQMDRVDQSAVGFEYQGKTEKHASQKDYSSGFGGKYGVQADRVDKSAVGFDYQGKTEKHESQRDYSKGFGGKYGIDKDKVDKSAVGFEYQGKTEKHESQKDYVKGFGGKFGVQTDRQDKCALGWDHQEKLQLHESQKDYKTGFGGKFGVQSERQDSAAVGFDYKEKLAKHESQQDYSKGFGGKYGVQKDRMDKNASTFEDVTQVSSAYQKTVPVEAVTSKTSNIRANFENLAKEKEQEDRRKAEAERAQRMAKERQEQEEARRKLEEQARAKTQTPPVSPAPQPTEERLPSSPVYEDAASFKAELSYRGPVSGTEPEPVYSMEAADYREASSQQGLAYATEAVYESAEAPGHYPAEDSTYDEYENDLGITAVALYDYQAAGDDEISFDPDDIITNIEMIDDGWWRGVCKGRYGLFPANYVELRQ
For B1, the “fold increase of association on VEGF (vs unstimulated)” value was 6 fold.

B2: phosphorylated S405-cortactin (natural protein, human (endogenous in HUVEC), UniProt Q14247 1-550, looked up)
chain: MWKASAGHAVSIAQDDAGADDWETDPDFVNDVSEKEQRWGAKTVQGSGHQEHINIHKLRENVFQEHQTLKEKELETGPKASHGYGGKFGVEQDRMDKSAVGHEYQSKLSKHCSQVDSVRGFGGKFGVQMDRVDQSAVGFEYQGKTEKHASQKDYSSGFGGKYGVQADRVDKSAVGFDYQGKTEKHESQRDYSKGFGGKYGIDKDKVDKSAVGFEYQGKTEKHESQKDYVKGFGGKFGVQTDRQDKCALGWDHQEKLQLHESQKDYKTGFGGKFGVQSERQDSAAVGFDYKEKLAKHESQQDYSKGFGGKYGVQKDRMDKNASTFEDVTQVSSAYQKTVPVEAVTSKTSNIRANFENLAKEKEQEDRRKAEAERAQRMAKERQEQEEARRKLEEQARAKTQTPPVSPAPQPTEERLPSSPVYEDAASFKAELSYRGPVSGTEPEPVYSMEAADYREASSQQGLAYATEAVYESAEAPGHYPAEDSTYDEYENDLGITAVALYDYQAAGDDEISFDPDDIITNIEMIDDGWWRGVCKGRYGLFPANYVELRQ
modifications: phosphoserine at 405
For B2, the “fold increase of its level in the GIT1–cortactin complex on VEGF” value was 4 fold.
